T1: CIPK1-His (Arabidopsis, UniProt Q8RWC9 1-444)
T1 construct: source: E. coli BL21 (Rosetta), purified; not shown: 6xHis, C-terminal, kept
T1 sequence (looked up): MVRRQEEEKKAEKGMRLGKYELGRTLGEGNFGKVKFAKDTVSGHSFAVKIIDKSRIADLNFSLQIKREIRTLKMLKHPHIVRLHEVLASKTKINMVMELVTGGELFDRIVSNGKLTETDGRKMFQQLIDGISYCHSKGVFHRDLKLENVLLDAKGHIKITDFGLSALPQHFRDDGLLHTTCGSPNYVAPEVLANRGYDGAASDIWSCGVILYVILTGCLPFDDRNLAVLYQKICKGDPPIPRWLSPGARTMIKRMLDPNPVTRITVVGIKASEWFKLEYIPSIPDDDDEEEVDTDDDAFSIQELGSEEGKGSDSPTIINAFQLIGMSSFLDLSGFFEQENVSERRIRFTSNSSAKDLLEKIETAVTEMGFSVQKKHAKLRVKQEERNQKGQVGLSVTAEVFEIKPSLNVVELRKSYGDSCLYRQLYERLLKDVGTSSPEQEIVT

B1: GST-PYL5 (receptor, Arabidopsis, UniProt Q9FLB1 1-203, looked up)
chain: MRSPVQLQHGSDATNGFHTLQPHDQTDGPIKRVCLTRGMHVPEHVAMHHTHDVGPDQCCSSVVQMIHAPPESVWALVRRFDNPKVYKNFIRQCRIVQGDGLHVGDLREVMVVSGLPAVSSTERLEILDEERHVISFSVVGGDHRLKNYRSVTTLHASDDEGTVVVESYIVDVPPGNTEEETLSFVDTIVRCNLQSLARSTNRQ
notes: PYL5, ABA receptor, Arabidopsis; source: recombinant protein, purified; not shown: GST, N-terminal, kept
B2: GST-PYL2 (receptor, Arabidopsis, UniProt O80992 1-190, looked up)
chain: MSSSPAVKGLTDEEQKTLEPVIKTYHQFEPDPTTCTSLITQRIHAPASVVWPLIRRFDNPERYKHFVKRCRLISGDGDVGSVREVTVISGLPASTSTERLEFVDDDHRVLSFRVVGGEHRLKNYKSVTSVNEFLNQDSGKVYTVVLESYTVDIPEGNTEEDTKMFVDTVVKLNLQKLGVAATSAPMHDDE
notes: PYL2, ABA receptor, Arabidopsis; source: recombinant protein, purified; not shown: GST, N-terminal, kept
B3: GST-PYL4 (receptor, Arabidopsis, UniProt O80920 1-207, looked up)
chain: MLAVHRPSSAVSDGDSVQIPMMIASFQKRFPSLSRDSTAARFHTHEVGPNQCCSAVIQEISAPISTVWSVVRRFDNPQAYKHFLKSCSVIGGDGDNVGSLRQVHVVSGLPAASSTERLDILDDERHVISFSVVGGDHRLSNYRSVTTLHPSPISGTVVVESYVVDVPPGNTKEETCDFVDVIVRCNLQSLAKIAENTAAESKKKMSL
notes: PYL4, ABA receptor, Arabidopsis; source: recombinant protein, purified; not shown: GST, N-terminal, kept
B4: GST-PYL1 (receptor, Arabidopsis, UniProt Q8VZS8 1-221, looked up)
chain: MANSESSSSPVNEEENSQRISTLHHQTMPSDLTQDEFTQLSQSIAEFHTYQLGNGRCSSLLAQRIHAPPETVWSVVRRFDRPQIYKHFIKSCNVSEDFEMRVGCTRDVNVISGLPANTSRERLDLLDDDRRVTGFSITGGEHRLRNYKSVTTVHRFEKEEEEERIWTVVLESYVVDVPEGNSEEDTRLFADTVIRLNLQKLASITEAMNRNNNNNNSSQVR
notes: PYL1, ABA receptor, Arabidopsis; source: recombinant protein, purified; not shown: GST, N-terminal, kept
B5: GST-PYL3 (receptor, Arabidopsis, UniProt Q9SSM7 1-209, looked up)
chain: MNLAPIHDPSSSSTTTTSSSTPYGLTKDEFSTLDSIIRTHHTFPRSPNTCTSLIAHRVDAPAHAIWRFVRDFANPNKYKHFIKSCTIRVNGNGIKEIKVGTIREVSVVSGLPASTSVEILEVLDEEKRILSFRVLGGEHRLNNYRSVTSVNEFVVLEKDKKKRVYSVVLESYIVDIPQGNTEEDTRMFVDTVVKSNLQNLAVISTASPT
notes: PYL3, ABA receptor, Arabidopsis; source: recombinant protein, purified; not shown: GST, N-terminal, kept
B6: GST-PYL6 (receptor, Arabidopsis, UniProt Q8S8E3 1-215, looked up)
chain: MPTSIQFQRSSTAAEAANATVRNYPHHHQKQVQKVSLTRGMADVPEHVELSHTHVVGPSQCFSVVVQDVEAPVSTVWSILSRFEHPQAYKHFVKSCHVVIGDGREVGSVREVRVVSGLPAAFSLERLEIMDDDRHVISFSVVGGDHRLMNYKSVTTVHESEEDSDGKKRTRVVESYVVDVPAGNDKEETCSFADTIVRCNLQSLAKLAENTSKFS
notes: PYL6, ABA receptor, Arabidopsis; source: recombinant protein, purified; not shown: GST, N-terminal, kept
B7: GST-PYR1 (receptor, Arabidopsis, UniProt O49686 1-191, looked up)
chain: MPSELTPEERSELKNSIAEFHTYQLDPGSCSSLHAQRIHAPPELVWSIVRRFDKPQTYKHFIKSCSVEQNFEMRVGCTRDVIVISGLPANTSTERLDILDDERRVTGFSIIGGEHRLTNYKSVTTVHRFEKENRIWTVVLESYVVDMPEGNSEDDTRMFADTVVKLNLQKLATVAEAMARNSGDGSGSQVT
notes: PYR1, ABA receptor, Arabidopsis; source: recombinant protein, purified; not shown: GST, N-terminal, kept

Biological target: T1, CIPK1-His
Assay: pull-down; 5 ug GST-PYR1/PYLs on GST resin at 4 C for 2 h, then 2 ug CIPK1-His for 2 h in pull-down buffer; 6 washes; blots with anti-His and anti-GST
Conditions: both partners purified

Binding result, binds:
B1
B2
B3
B4
B5
B6
B7
